Where “and” joins values, the source holds several entries; their conditions need not be identical. Equal values may be shown once.
Legend:
[1] = tested on: MIF/CXCR4-dependent JVM-3 lymphocyte chemotaxis; experiment: inhibition of MIF-mediated JVM-3 B cell chemotaxis by RLR-containing peptides; type: cell-based, human; settings: 16 nM WT-MIF, pre-incubated 30 min, migration 24 h, 3–12 replicates, 2–3 experiments
Experimental: (§1) Migration assays using the CXCR4-expressing JVM-3 B cell line were performed in a transmigration well as previously described[32] using the following modifications. Briefly, JVM-3 B cells were sub-cultured and transferred to media without FBS. A migration assay was performed using 24-well format Transwell membranes (Sigma-Corning; 5 µm pore size) containing 1 × 10^6 JVM-3 cells in the upper chamber. […] As positive control, 8 nM CXCL12 was used. Wells without chemoattractant served as negative control and were used to normalize migration effects to ‘chemotactic index’ (number of migrated cells in the presence of chemoattractant divided by the number of migrated cells in the absence of the chemoattractant) – as described previously. […] Cells were allowed to migrate for 24 h. After migration, cells in the lower chamber were counted using Countbright absolute counting beads (Invitrogen) using a FACSVerse flow cytometer (BD Biosciences, Heidelberg, Germany).

[2] = biological target: the molecule itself; experiment: SEC; Superdex 75 in 20 mM sodium phosphate buffer, pH 7.2, after Q sepharose; peaks at approximately 23 and 38 kDa
[3] = tested on: JVM-3 B cells (CXCR4-expressing); experiment: lymphocyte chemotaxis assay, JVM-3 B cells (chemoattractant); type: cell-based, human; settings: for chemotactic effect compared with another chemoattractant: WT-MIF compared with CXCL12, RLR mutant compared with WT-MIF
Experimental: JVM-3 cells (ACC-18) are a chronic B cell leukemia cell line and were kindly provided by Prof. M. Hallek, University of Cologne Medical School, Cologne, Germany. JVM-3 were grown in RPMI media with 1% penicillin/streptomycin and 10% fetal bovine serum (Invitrogen-Thermo Fisher Scientific, Karlsruhe, Germany) essentially as described previously. Miscellaneous cell culture reagents also were bought from Invitrogen-Thermo Fisher Scientific and from PAA (Pasching, Austria). LPS content of the purified WT-MIF and RLR mutant proteins was tested by limulus amoebocyte assay (LAL, Lonza, Cologne, Germany) following the manufacturer’s recommendation. All other reagents were obtained from Sigma, Merck, Roth, or Calbiochem, and were of the highest purity degree available.
as §1

[4] = circular dichroism spectroscopy; type: physicochemical; settings: for aggregation-tendency: far-UV CD at 1, 2.5, and 5 µM, 10 mM sodium phosphate, pH 7.2, 25 °C
Experimental: CD spectroscopy provides a good estimation of the secondary structural profile of a protein and records relative changes in average secondary structural content, e.g. when a mutated protein is compared to its wildtype counterpart.
Far-UV circular dichroism (CD) spectra were recorded in a Jasco 700 CD spectropolarimeter (Jasco Labor- u. Datentechnik GmbH, Groß-Umstadt, Germany). Scans were recorded at 25 °C between 195 and 250 nm as an average of three scans and smoothed to obtain the final data. Spectra were collected at 1.0 nm intervals with a bandwidth of 1 nm in a buffer containing 10 mM sodium phosphate, pH 7.2. […] CD spectra are presented as a plot of mean residue ellipticities. […] Secondary structure fractions were quantitated by the Dichroweb online software webtool by deconvolutions of CD spectra using ContinLL at DichroWeb and the reference spectra set 7[43],[44].

[5] = size exclusion chromatography, oligomeric state; type: physicochemical; settings: Superdex 75, 20 mM sodium phosphate, pH 7.2
Experimental: The mutant protein was eluted from the anion exchange column via salt gradient and subjected to size exclusion chromatography (SEC) for further purification.
Following Q sepharose, the protein was further purified by size exclusion chromatography (SEC, Superdex 75, GE Healthcare) in 20 mM sodium phosphate buffer, pH 7.2, i.e. buffer conditions compatible with MIF bioactivity.

[6] = tested on: human CXCR4 expressed in S. cerevisiae; settings: yeast CXCR4 signaling system, in comparison with CXCL12; cited from earlier work
Source text: To address the contribution of the RLR motif to MIF/CXCR4-specific cell signaling responses, we employed a genetically modified strain of Saccharomyces cerevisiae that replaces the yeast ste2 GPCR with human CXCR4 as previously reported. This cell system eliminates complications from mammalian cells that usually express more than one or all MIF cell surface receptors and is based on agonist-mediated activation of CXCR4 leading to a signaling cascade that results in β-galactosidase expression from the Fus1-lacZ reporter plasmid.

ERLRISPDRVYINYY [MIF(86–100), RLR-spanning MIF peptide]
inhibition of WT-MIF-mediated JVM-3 chemotaxis ([1]; peptide 10 nM and 100 nM): trend towards inhibition
inhibition of WT-MIF-mediated JVM-3 chemotaxis ([1]; peptide 1 µM): significant and complete blockade

YSKLLCGLLAERLRI [MIF(76–90), RLR-spanning MIF peptide]
inhibition of WT-MIF-mediated JVM-3 chemotaxis ([1]; peptide 10 nM and 100 nM): ablated

B1: R87A-L88A-R89A-MIF (ligand, human, UniProt P14174 1-115, looked up)
chain: MPMFIVNTNVPRASVPDGFLSELTQQLAQATGKPPQYIAVHVVPDQLMAFGGSSEPCALCSLHSIGKIGGAQNRSYSKLLCGLLAEAAAISPDRVYINYYDMNAANVGWNNSTFA
notes: also called RLR mutant; MIF R87A-L88A-R89A triple mutant; source: E. coli BL21/DE3 (pET11b), purified (Q sepharose anion exchange, Superdex 75 SEC)
stoichiometry N [2]: 2 and 3
chemotactic activity on JVM-3 B cells ([3]; RLR mutant 8 nM, 16 nM, 32 nM, p = ns, 24 h, Transwell 5 µm): did not exhibit a significant chemotactic activity
chemotactic activity on JVM-3 lymphocytes ([3]; RLR mutant 16 nM (optimal concentration of WT-MIF)): failed to show any chemotactic activity
chemotactic activity on JVM-3 lymphocytes ([3]; RLR mutant 32 nM, effect did not reach statistical significance): slight increase in activity
chemotactic effect compared with another chemoattractant [3]: Impaired chemotactic effect
chemotactic effect compared with another chemoattractant ([3]; listed as MIF R87A-L88A-R89A triple mutant): reduced cell migratory response
chemotactic effect compared with another chemoattractant ([3]; listed as RLR-mutant of MIF): reduction
increase of random coil content vs WT-MIF ([4]; CD deconvolution by Dichroweb): approximately 20%
reduction of α-helix content vs WT-MIF ([4]; CD deconvolution by Dichroweb): 12%
reduction of β-strand percentage vs WT-MIF ([4]; CD deconvolution by Dichroweb): 7%
decrease in ordered secondary structural content vs WT-MIF ([4]; CD spectroscopy): 20%
aggregation-tendency [4]: neither protein showed an aggregation-tendency
approximate molecular size of SEC peak, first species ([5]; suggests dimers): ~23 kDa
approximate molecular size of SEC peak, second species ([5]; suggests trimers): ~38 kDa

B2: macrophage migration inhibitory factor (protein, UniProt P14174 2-115, looked up)
Macrophage migration …: PMFIVNTNVPRASVPDGFLSELTQQLAQATGKPPQYIAVHVVPDQLMAFGGSSEPCALCSLHSIGKIGGAQNRSYSKLLCGLLAERLRISPDRVYINYYDMNAANVGWNNSTFA
notes: recombinant human MIF
chemotactic effect compared with another chemoattractant [3]: lower than that of CXCL12
aggregation-tendency [4]: neither protein showed an aggregation-tendency
type of agonism at CXCR4 [6]: partial allosteric agonism

Source: article PMC5979958 (Scientific Reports, 2018)
